Data: paper PMC3706390

Biological target: L30 (ribosomal protein L30) wild-type (rat) (UniProt P62890)
Test: EMSA
Conditions: 30 mM Tris-HCl pH 8.0, 75 mM KCl, 5 mM MgCl2, 1 mM DTT, 0.04 ug/uL BSA, 10% glycerol, 50 ng/uL yeast tRNA, 30 C 15 min; EMSA gels 0.5X TBE at 4 C; RNase …

## PHGPx SECIS 102 nt (REMSA)
  Kd: 490 nM
